Biological target: human IgG (used as a control) (human)
Assay: ELISA pH 7.4; human IgG control coated, biotinylated FcRn titrated, streptavidin-HRP

EC50: 0.0292 µg/mL
Substance: recombinant human FcRn, biotinylated (R&D Systems) (from UniProt P55899 24-297; P61769 21-119) (receptor)

From patent US20260000752A1
